Target: HIV-1 reverse transcriptase p66 (HIV-1)
Assay: SEC

Substance: HIV-1 reverse transcriptase p66 (enzyme)
- stoichiometry N: 2
